Results taken from patent US20220411483A1 (Chugai, published 2022).
Blank lines part the entries; values can stand above or below the binder they belong to.

Assays:
[1] = biological target: T1, human FcγRIa extracellular domain with C-terminal His tag (human, UniProt P12314 16-292); assay: SPR, antibody captured, FcgR analyte
T1 construct: Whole entry named; also called FcgRIa

[2] = biological target: T2, human FcγRIIa R type extracellular domain with C-terminal His tag (human, UniProt P12318 34-217); assay: SPR, antibody captured, FcgR analyte
T2 construct: extracellular domain; also called FcgRIIaR
T2 sequence (looked up): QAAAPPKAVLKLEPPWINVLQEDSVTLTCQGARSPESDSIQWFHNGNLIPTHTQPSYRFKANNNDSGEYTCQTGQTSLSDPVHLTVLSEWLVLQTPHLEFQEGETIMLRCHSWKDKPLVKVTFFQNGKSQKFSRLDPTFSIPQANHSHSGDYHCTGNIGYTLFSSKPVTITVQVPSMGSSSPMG

[3] = biological target: T3, human FcγRIIb extracellular domain with C-terminal His tag (human, UniProt P31994 43-217); assay: SPR, antibody captured, FcgR analyte
T3 construct: extracellular domain; also called FcgRIIb
T3 sequence (looked up): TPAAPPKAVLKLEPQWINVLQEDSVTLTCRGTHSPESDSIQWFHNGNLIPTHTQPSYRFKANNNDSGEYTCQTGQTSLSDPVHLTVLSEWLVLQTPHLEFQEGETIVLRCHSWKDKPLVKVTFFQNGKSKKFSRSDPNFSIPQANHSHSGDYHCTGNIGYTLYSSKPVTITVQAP

[4] = biological target: T1, human FcγRIa extracellular domain with …; assay: SPR, KD of IL6R-G1d/IL6R-L divided by KD of variant
[5] = biological target: T2, human FcγRIIa R type extracellular …; assay: as above
[6] = biological target: T4, human FcγRIIa H type extracellular domain with C-terminal His tag (human, UniProt P12318 34-217); assay: as above
T4 construct: extracellular domain; also called FcgRIIaH
T4 sequence (looked up): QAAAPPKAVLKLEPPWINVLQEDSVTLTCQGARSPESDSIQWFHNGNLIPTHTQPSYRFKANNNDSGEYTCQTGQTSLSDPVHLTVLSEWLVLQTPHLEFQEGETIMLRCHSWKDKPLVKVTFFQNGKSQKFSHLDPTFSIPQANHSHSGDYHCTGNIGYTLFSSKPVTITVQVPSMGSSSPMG

[7] = biological target: T3, human FcγRIIb extracellular domain with …; assay: as above
[8] = biological target: T5, human FcγRIIIa V type extracellular domain with C-terminal His tag (human, UniProt P08637 17-208); assay: as above
T5 construct: extracellular domain; also called FcgRIIIaV
T5 sequence (P08637 17-208 F176V): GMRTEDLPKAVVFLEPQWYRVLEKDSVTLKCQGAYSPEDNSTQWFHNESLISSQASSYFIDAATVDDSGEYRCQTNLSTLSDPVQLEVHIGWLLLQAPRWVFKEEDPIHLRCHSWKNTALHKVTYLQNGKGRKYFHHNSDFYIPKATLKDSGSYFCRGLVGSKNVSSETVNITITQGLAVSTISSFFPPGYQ

T1 sequence (P12314 16-292): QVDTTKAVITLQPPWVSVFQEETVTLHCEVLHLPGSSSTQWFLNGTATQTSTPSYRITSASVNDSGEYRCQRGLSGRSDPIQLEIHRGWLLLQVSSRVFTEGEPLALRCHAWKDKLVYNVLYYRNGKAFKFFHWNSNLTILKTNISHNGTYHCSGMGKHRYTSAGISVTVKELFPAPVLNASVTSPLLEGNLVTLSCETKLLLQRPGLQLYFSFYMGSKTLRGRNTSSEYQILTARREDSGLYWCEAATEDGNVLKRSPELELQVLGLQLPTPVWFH

B1: IL6R-P752/IL6R-L (antibody, human IgG1, kappa)
heavy: QVQLQESGPGLVKPSETLSLTCAVSGHSISHDHAWSWVRQPPGEGLEWIGFISYSGITNYNPSLQGRVTISRDNSKNTLYLQMNSLRAEDTAVYYCARSLARTTAMDYWGEGTLVTVSSASTKGPSVFPLAPSSKSTSGGTAALGCLVKDYFPEPVTVSWNSGALTSGVHTFPAVLQSSGLYSLSSVVTVPSSSLGTQTYICNVNHKPSNTKVDKKVEPKSCDKTHTCPPCPAPELFGQDSVMLFPPKPKDTLMISRTPEVTCVVVDVSPEDPEVKFNWYVDGVEVHNAKTKPREEQENSTYRVVSVLTVLHQDWLNGKEYKCAVHNKALPAPIEKTISKAKGQPREPQVYTLPPSRDELTKNQVSLTCLVKGFYPSDIAVEWESNGQPENNYKTTPPVLDSDGSFFLYSKLTVDKSRWQQGNVFSCSVMHEALHNHYTQKSLSLSP
light: not shown
- Kd [1]: 150 nM
- Kd [2]: 41000 nM
- Kd [3]: 4200 nM
- Relative FcgRIa-binding Activity [4]: 0.002
- Relative FcgRIIaR-binding Activity [5]: 0.03
- Relative FcgRIIaH-binding Activity [6]: 0.013
- Relative FcgRIIb-binding Activity [7]: 0.5
- Relative FcgRIIIaV-binding Activity [8]: 0.006

B2: IL6R-P754/IL6R-L (antibody, human IgG1, kappa)
heavy: QVQLQESGPGLVKPSETLSLTCAVSGHSISHDHAWSWVRQPPGEGLEWIGFISYSGITNYNPSLQGRVTISRDNSKNTLYLQMNSLRAEDTAVYYCARSLARTTAMDYWGEGTLVTVSSASTKGPSVFPLAPSSKSTSGGTAALGCLVKDYFPEPVTVSWNSGALTSGVHTFPAVLQSSGLYSLSSVVTVPSSSLGTQTYICNVNHKPSNTKVDKKVEPKSCDKTHTCPPCPAPELLGQDSVMLFPPKPKDTLMISRTPEVTCVVVDVSPEDPEVKFNWYVDGVEVHNAKTKPREEQENSTYRVVSVLTVLHQDWLNGKEYKCAVHNKALPHPIEKTISKAKGQPREPQVYTLPPSRDELTKNQVSLTCLVKGFYPSDIAVEWESNGQPENNYKTTPPVLDSDGSFFLYSKLTVDKSRWQQGNVFSCSVMHEALHNHYTQKSLSLSP
light: not shown
- Kd [1]: 190 nM
- Kd [2]: 10000 nM
- Kd [3]: 7700 nM
- Relative FcgRIa-binding Activity [4]: 0.002
- Relative FcgRIIaR-binding Activity [5]: 0.11
- Relative FcgRIIaH-binding Activity [6]: 0.003
- Relative FcgRIIb-binding Activity [7]: 0.3
- Relative FcgRIIIaV-binding Activity [8]: 0.004

B3: IL6R-P759/IL6R-L (antibody, human IgG1, kappa)
heavy: QVQLQESGPGLVKPSETLSLTCAVSGHSISHDHAWSWVRQPPGEGLEWIGFISYSGITNYNPSLQGRVTISRDNSKNTLYLQMNSLRAEDTAVYYCARSLARTTAMDYWGEGTLVTVSSASTKGPSVFPLAPSSKSTSGGTAALGCLVKDYFPEPVTVSWNSGALTSGVHTFPAVLQSSGLYSLSSVVTVPSSSLGTQTYICNVNHKPSNTKVDKKVEPKSCDKTHTCPPCPAPDLLGDDSVFLFPPKPKDTLMISRTPEVTCVVVDVSDEDGEVKFNWYVDGVEVHNAKTKPREEQYNSTYRVVSVLTVLHQDWLNGKEYKCKVSNKGLPSSIEKTISKAKGQPREPQVYTLPPSRDELTKNQVSLTCLVKGFYPSDIAVEWESNGQPENNYKTTPPVLDSDGSFFLYSKLTVDKSRWQQGNVFSCSVMHEALHNHYTQKSLSLSP
light: not shown
- Kd [1]: 5.5 nM
- Kd [2]: 1400 nM
- Kd [3]: 150 nM
- Relative FcgRIa-binding Activity [4]: 0.058
- Relative FcgRIIaR-binding Activity [5]: 0.79
- Relative FcgRIIaH-binding Activity [6]: 0.024
- Relative FcgRIIb-binding Activity [7]: 14
- Relative FcgRIIIaV-binding Activity [8]: 0.005

B5: IL6R-P753/IL6R-L (antibody, human IgG1, kappa)
heavy: QVQLQESGPGLVKPSETLSLTCAVSGHSISHDHAWSWVRQPPGEGLEWIGFISYSGITNYNPSLQGRVTISRDNSKNTLYLQMNSLRAEDTAVYYCARSLARTTAMDYWGEGTLVTVSSASTKGPSVFPLAPSSKSTSGGTAALGCLVKDYFPEPVTVSWNSGALTSGVHTFPAVLQSSGLYSLSSVVTVPSSSLGTQTYICNVNHKPSNTKVDKKVEPKSCDKTHTCPPCPAPELFGQDSVMLFPPKPKDTLMISRTPEVTCVVVDVSPEDPEVKFNWYVDGVEVHNAKTKPREEQENSTYRVVSVLTVLHQDWLNGKEYKCEVHNKALPAPIEKTISKAKGQPREPQVYTLPPSRDELTKNQVSLTCLVKGFYPSDIAVEWESNGQPENNYKTTPPVLDSDGSFFLYSKLTVDKSRWQQGNVFSCSVMHEALHNHYTQKSLSLSP
light: not shown
- Kd [1]: 110 nM
- Kd [2]: 18000 nM
- Kd [3]: 2800 nM
- Relative FcgRIa-binding Activity [4]: 0.003
- Relative FcgRIIaR-binding Activity [5]: 0.06
- Relative FcgRIIaH-binding Activity [6]: 0.014
- Relative FcgRIIb-binding Activity [7]: 0.8
- Relative FcgRIIIaV-binding Activity [8]: 0.007

B7: IL6R-P755/IL6R-L (antibody, human IgG1, kappa)
heavy: QVQLQESGPGLVKPSETLSLTCAVSGHSISHDHAWSWVRQPPGEGLEWIGFISYSGITNYNPSLQGRVTISRDNSKNTLYLQMNSLRAEDTAVYYCARSLARTTAMDYWGEGTLVTVSSASTKGPSVFPLAPSSKSTSGGTAALGCLVKDYFPEPVTVSWNSGALTSGVHTFPAVLQSSGLYSLSSVVTVPSSSLGTQTYICNVNHKPSNTKVDKKVEPKSCDKTHTCPPCPAPELLGQDSVMLFPPKPKDTLMISRTPEVTCVVVDVSPEDPEVKFNWYVDGVEVHNAKTKPREEQENSTYRVVSVLTVLHQDWLNGKEYKCEVHNKALPHPIEKTISKAKGQPREPQVYTLPPSRDELTKNQVSLTCLVKGFYPSDIAVEWESNGQPENNYKTTPPVLDSDGSFFLYSKLTVDKSRWQQGNVFSCSVMHEALHNHYTQKSLSLSP
light: not shown
- Kd [1]: 85 nM
- Kd [2]: 17000 nM
- Kd [3]: 4100 nM
- Relative FcgRIa-binding Activity [4]: 0.004
- Relative FcgRIIaR-binding Activity [5]: 0.06
- Relative FcgRIIaH-binding Activity [6]: 0.005
- Relative FcgRIIb-binding Activity [7]: 0.5
- Relative FcgRIIIaV-binding Activity [8]: 0.005

B8: IL6R-P758/IL6R-L (antibody, human IgG1, kappa)
heavy: QVQLQESGPGLVKPSETLSLTCAVSGHSISHDHAWSWVRQPPGEGLEWIGFISYSGITNYNPSLQGRVTISRDNSKNTLYLQMNSLRAEDTAVYYCARSLARTTAMDYWGEGTLVTVSSASTKGPSVFPLAPSSKSTSGGTAALGCLVKDYFPEPVTVSWNSGALTSGVHTFPAVLQSSGLYSLSSVVTVPSSSLGTQTYICNVNHKPSNTKVDKKVEPKSCDKTHTCPPCPAPELLGDDSVFLFPPKPKDTLMISRTPEVTCVVVDVSDEDGEVKFNWYVDGVEVHNAKTKPREEQYNSTYRVVSVLTVLHQDWLNGKEYKCKVSNKGLPSSIEKTISKAKGQPREPQVYTLPPSRDELTKNQVSLTCLVKGFYPSDIAVEWESNGQPENNYKTTPPVLDSDGSFFLYSKLTVDKSRWQQGNVFSCSVMHEALHNHYTQKSLSLSP
light: not shown
- Kd [1]: 11 nM
- Kd [2]: 1900 nM
- Kd [3]: 260 nM
- Relative FcgRIa-binding Activity [4]: 0.029
- Relative FcgRIIaR-binding Activity [5]: 0.58
- Relative FcgRIIaH-binding Activity [6]: 0.021
- Relative FcgRIIb-binding Activity [7]: 8.1
- Relative FcgRIIIaV-binding Activity [8]: 0.006

Stronger by Kd [1], values ahead:

- Kd [1]: 1.7 nM
- Kd [2]: 2300 nM
- Kd [3]: 100 nM
- Relative FcgRIa-binding Activity [4]: 0.188
- Relative FcgRIIaR-binding Activity [5]: 0.48
- Relative FcgRIIaH-binding Activity [6]: 0.026
- Relative FcgRIIb-binding Activity [7]: 21
- Relative FcgRIIIaV-binding Activity [8]: 0.008
B4: IL6R-P757/IL6R-L (antibody, human IgG1, kappa)
heavy: QVQLQESGPGLVKPSETLSLTCAVSGHSISHDHAWSWVRQPPGEGLEWIGFISYSGITNYNPSLQGRVTISRDNSKNTLYLQMNSLRAEDTAVYYCARSLARTTAMDYWGEGTLVTVSSASTKGPSVFPLAPSSKSTSGGTAALGCLVKDYFPEPVTVSWNSGALTSGVHTFPAVLQSSGLYSLSSVVTVPSSSLGTQTYICNVNHKPSNTKVDKKVEPKSCDKTHTCPPCPAPELLGGDSVFLFPPKPKDTLMISRTPEVTCVVIDVAEEDGEVKFNWYVDGVEVHNAKTKPREEQYNSTYRVVSVLTVLHQDWLNGKEYKCKVSNKGLPSSIEKTISKAKGQPREPQVYTLPPSRDELTKNQVSLTCLVKGFYPSDIAVEWESNGQPENNYKTTPPVLDSDGSFFLYSKLTVDKSRWQQGNVFSCSVMHEALHNHYTQKSLSLSP
light: not shown

- Kd [1]: 1.1 nM
- Kd [2]: 1700 nM
- Kd [3]: 52 nM
- Relative FcgRIa-binding Activity [4]: 0.291
- Relative FcgRIIaR-binding Activity [5]: 0.65
- Relative FcgRIIaH-binding Activity [6]: 0.03
- Relative FcgRIIb-binding Activity [7]: 40.4
- Relative FcgRIIIaV-binding Activity [8]: 0.007
B6: IL6R-P756/IL6R-L (antibody, human IgG1, kappa)
heavy: QVQLQESGPGLVKPSETLSLTCAVSGHSISHDHAWSWVRQPPGEGLEWIGFISYSGITNYNPSLQGRVTISRDNSKNTLYLQMNSLRAEDTAVYYCARSLARTTAMDYWGEGTLVTVSSASTKGPSVFPLAPSSKSTSGGTAALGCLVKDYFPEPVTVSWNSGALTSGVHTFPAVLQSSGLYSLSSVVTVPSSSLGTQTYICNVNHKPSNTKVDKKVEPKSCDKTHTCPPCPAPDLLGGDSVFLFPPKPKDTLMISRTPEVTCVVIDVAEEDGEVKFNWYVDGVEVHNAKTKPREEQYNSTYRVVSVLTVLHQDWLNGKEYKCKVSNKGLPSSIEKTISKAKGQPREPQVYTLPPSRDELTKNQVSLTCLVKGFYPSDIAVEWESNGQPENNYKTTPPVLDSDGSFFLYSKLTVDKSRWQQGNVFSCSVMHEALHNHYTQKSLSLSP
light: not shown
